Where “and” joins values, the source holds several entries; their conditions need not be identical. Equal entries are not always repeated. Each block holds one binder with its values, some of them ahead of it.
Key:
[1] = molecular target: T1, His6-tagged human DISC1 C-region (residues 691-836) (human), Q9NRI5; assay: dynamic light scattering; His6-C-region, 10-90 µM at 37 °C; samples centrifuged at 21,000 x g before measurement; settings: remark: other sources report otherwise
T1 chain: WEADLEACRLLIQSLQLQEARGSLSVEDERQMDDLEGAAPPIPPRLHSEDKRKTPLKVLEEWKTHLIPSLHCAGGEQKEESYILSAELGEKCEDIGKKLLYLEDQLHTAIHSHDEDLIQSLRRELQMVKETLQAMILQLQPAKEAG

[2] = molecular target: T1, His6-tagged human DISC1 C-region …; assay: negative-stain transmission electron microscopy; 10 µM protein on carbon-coated copper grids, 1% uranyl acetate; 2D classification and 3D reconstruction (RELION); settings: remark: other sources report otherwise
[3] = molecular target: T1, His6-tagged human DISC1 C-region …; assay: dynamic light scattering; critical concentration of C-region monomers/oligomers in equilibrium with the fibril suspension, taken as the detection limit of the instrument; 1D crystallization model (KF = 1/[C]); settings: remark: other sources report otherwise
[4] = molecular target: T1, His6-tagged human DISC1 C-region …; assay: ITC; no titration: heat flow of the spontaneous association of the protein solution monitored in the cell (iTC-200, 300 rpm); 10-50 µM at 37 °C, 10 µM at 20-60 °C; dH from the peak area normalised to the protein amount; settings: remark: other sources report otherwise
[5] = molecular target: T2, lissencephaly 1 (LIS1) (UniProt P43034 1-410); assay: SPR; oligomeric/fibrillar C-region (His-C-region incubated at 4 °C for two weeks, MBP-C-region for two months) amine-coupled to a CM5 chip (250 RU); analytes 0.75-10 µM without regeneration; 25 °C, PBS pH 7.4; equilibrium responses fitted with Hill's equation; apparent affinities; settings: both partners purified
T2 construct: lissencephaly 1 (LIS1); source: E. coli C43 (DE3), purified (Ni2+-NTA, Superdex 200 SEC)
T2 sequence (looked up): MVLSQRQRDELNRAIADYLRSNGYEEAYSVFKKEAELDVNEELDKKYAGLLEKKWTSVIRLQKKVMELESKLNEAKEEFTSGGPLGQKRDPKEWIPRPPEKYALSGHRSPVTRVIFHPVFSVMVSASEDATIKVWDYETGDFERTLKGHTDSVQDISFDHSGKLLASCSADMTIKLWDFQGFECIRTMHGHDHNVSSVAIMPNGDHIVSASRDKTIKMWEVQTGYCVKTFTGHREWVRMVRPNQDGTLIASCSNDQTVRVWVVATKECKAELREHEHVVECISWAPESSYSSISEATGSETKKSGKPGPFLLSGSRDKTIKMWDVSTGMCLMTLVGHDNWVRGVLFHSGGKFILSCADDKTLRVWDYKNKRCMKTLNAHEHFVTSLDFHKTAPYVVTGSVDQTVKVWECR

[6] = molecular target: T3, NDE-like 1 (NDEL1) (UniProt Q9GZM8 1-345); assay: as above; settings: both partners purified
T3 sequence (Q9GZM8 whole entry): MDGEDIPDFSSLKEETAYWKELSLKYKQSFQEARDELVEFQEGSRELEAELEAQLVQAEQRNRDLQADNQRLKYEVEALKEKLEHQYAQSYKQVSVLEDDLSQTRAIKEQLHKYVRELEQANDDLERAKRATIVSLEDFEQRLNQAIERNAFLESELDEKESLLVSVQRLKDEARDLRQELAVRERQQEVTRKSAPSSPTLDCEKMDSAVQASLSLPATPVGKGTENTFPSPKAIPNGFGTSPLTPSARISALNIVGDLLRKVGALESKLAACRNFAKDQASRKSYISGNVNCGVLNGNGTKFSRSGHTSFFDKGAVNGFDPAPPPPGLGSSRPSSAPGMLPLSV

[7] = molecular target: T3, NDE-like 1 (NDEL1); assay: SPR; freshly prepared MBP-C-region (representing the monomer) amine-coupled to a CM5 chip (250 RU); analytes 0.75-10 µM without regeneration; 25 °C, PBS pH 7.4 (20 mM Na-phosphate, 150 mM NaCl); equilibrium responses fitted with Hill's equation; settings: both partners purified
[8] = molecular target: T2, lissencephaly 1 (LIS1); assay: as above; settings: both partners purified
[9] = molecular target: T3, NDE-like 1 (NDEL1); assay: as above; settings: both partners purified; remark: listed apart in the source
[10] = molecular target: T4, MBP-His6-fused human DISC1 C-region (residues 691-836) (human), Q9NRI5; assay: dynamic light scattering; MBP-tagged C-region in solution at different temperatures (Fig. S1); settings: remark: other sources report otherwise
T4 chain: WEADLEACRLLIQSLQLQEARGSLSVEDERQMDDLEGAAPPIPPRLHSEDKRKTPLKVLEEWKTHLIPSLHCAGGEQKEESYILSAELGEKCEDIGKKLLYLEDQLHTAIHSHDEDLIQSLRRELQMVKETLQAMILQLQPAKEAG

B1: His6-tagged human DISC1 C-region (residues 691-836), Q9NRI5 691-836 (domain or fragment)
chain: WEADLEACRLLIQSLQLQEARGSLSVEDERQMDDLEGAAPPIPPRLHSEDKRKTPLKVLEEWKTHLIPSLHCAGGEQKEESYILSAELGEKCEDIGKKLLYLEDQLHTAIHSHDEDLIQSLRRELQMVKETLQAMILQLQPAKEAG
stoichiometry N [1]: 4 | stoichiometry N [2]: 4 and 5 and 6 | critical concentration (1/KF of fibril formation) [3]: 750 nM | dH [4]: -71.2 kcal/mol

B2: His6-tagged human DISC1 C-region (residues 691-836) (domain or fragment, UniProt Q9NRI5 691-836, looked up)
chain: WEADLEACRLLIQSLQLQEARGSLSVEDERQMDDLEGAAPPIPPRLHSEDKRKTPLKVLEEWKTHLIPSLHCAGGEQKEESYILSAELGEKCEDIGKKLLYLEDQLHTAIHSHDEDLIQSLRRELQMVKETLQAMILQLQPAKEAG
notes: disrupted in schizophrenia 1 (DISC1), human, C-region, residues 691-836 of full-length human DISC1; Vector pESPRIT002; Theoretical mass of the tagged protein 19.4 kDa; for SPR it was incubated at 4 °C for two weeks (oligomer/fibril); also called His6-C-region; His-C-region; source: E. coli BL21 (DE3) pLysE T1R, purified (Co2+-NTA, Superdex 200 SEC); not shown: His6, N-terminal, kept
Kd [5]: 0.031 µM | Kd [6]: 13 µM

Other lines, results leading:

Kd [7]: 28 µM | Kd [8]: 0.071 µM | Kd [9]: 20 µM | Kd [5]: 0.031 µM | Kd [6]: 14 µM
B3: MBP-His6-fused human DISC1 C-region (residues 691-836) (domain or fragment, UniProt Q9NRI5 691-836, looked up)
chain: WEADLEACRLLIQSLQLQEARGSLSVEDERQMDDLEGAAPPIPPRLHSEDKRKTPLKVLEEWKTHLIPSLHCAGGEQKEESYILSAELGEKCEDIGKKLLYLEDQLHTAIHSHDEDLIQSLRRELQMVKETLQAMILQLQPAKEAG
notes: disrupted in schizophrenia 1 (DISC1), human, C-region, residues 691-836 of full-length human DISC1; Cloned in pET-15b; Used freshly prepared to represent the monomer, and after two months at 4 °C as oligomer/fibril, in SPR; also called MBP-C-region; MBP-C region; source: E. coli (DE3) C43, purified (Co2+-NTA, amylose column); not shown: MBP, N-terminal, kept; His6, N-terminal, kept

stoichiometry N [10]: 4
B4: MBP-His6-fused human DISC1 C-region (residues 691-836), Q9NRI5 691-836 (domain or fragment)
chain: WEADLEACRLLIQSLQLQEARGSLSVEDERQMDDLEGAAPPIPPRLHSEDKRKTPLKVLEEWKTHLIPSLHCAGGEQKEESYILSAELGEKCEDIGKKLLYLEDQLHTAIHSHDEDLIQSLRRELQMVKETLQAMILQLQPAKEAG

Source: PMC8683410 (Translational Psychiatry, 2021)
